Results reported in publication PMC10666096 (Proceedings of the National Academy of Sciences of the …, 2023).

Molecular target: the molecule itself
Test: single-molecule photobleaching analysis

B1: Cyanine-5 labeled N43S Fluc-Bpe (natural protein, Bordetella pertussis)
chain: MLTYAPLNFIAIGIGATLGAWLRWVLGLKLNGAGWPWGTLTASLVGGYLIGVMVALIASHPEWPAWIRLAAVTGFLGGLTTFSTFSAETVDMLSRGVYATAAAYAGASLAGSLAMTGLGLATVRLLLC
modifications: Cy5 (Cyanine5-maleimide) on the cysteine of R128C
stoichiometry N: 2
